Assay results published in US20180057553A1, “CONJUGATE AND USE THEREOF” (The University of Tokyo, priority 2015, published 2018).
Positions count from the first letter of the chain named. In names and notes the source's numbering stands. One block for each molecule: values may come before it.

What was measured:
[1] = Binding of intelectin to beads having a diol group (SDS-PAGE, Examples 1 and 10); details: 18 hours at 25 deg C; eluted with 15% glycerol; compared with polystyrene or hydroxy beads
Procedure: Beads having a diol group on the surface and beads not having a diol group on the surface were prepared. Beads obtained by conjugating 3-amino-1-propanediol bound to the surface of polystyrene beads via an amino group (diol beads), and beads obtained by alkaline hydrolyzing the epoxy group of Sepharose beads with 1,4-bis(2,3-epoxypropyl)butane introduced (epoxy-activated Sepharose 6B (GE Healthcare Biosciences)) (diol Sepharose beads) were used as the beads having a diol group on the surface. Polystyrene beads and beads obtained by conjugating 3-amino-1-propanol to polystyrene beads (hydroxy beads) were used as the beads not having a diol group on the surface.
Each kind of beads were added to 500 microliters of a medium containing intelectin or a medium not containing intelectin, and were stirred for 18 hours at 25 deg C. Recombinant human intelectin-1 was used as intelectin. Subsequently, the beads were collected by centrifugation and washed once with buffer, and the samples was eluted with buffer containing 15% glycerol. Samples were separated by SDS polyacrylamide gel electrophoresis (SDS-PAGE), and proteins were stained using Coomassie Brilliant Blue.
Beads having a diol group on the surface and beads not having a diol group on the surface were prepared. Diol beads, diol Sepharose brads, and hydroxy beads, that were used in Example 1, were used as the beads.
First, beads were added to 5 mL of a medium containing recombinant mouse intelectin-1 or 1 mL of a medium containing C31, 48S mutant of human intelectin-1, and the samples were stirred for 18 hours at 25 deg C.
Subsequently, the beads were collected by centrifugation and washed once with buffer, and the samples were eluted with buffer containing 15% glycerol. The samples were then separated by SDS-polyacrylamide gel electrophoresis (SDS-PAGE), and proteins were stained with Coomassie Brilliant Blue.

[2] = Adsorption of intelectin in human serum to diol modified silica gel column (Example 14); format: binding
Procedure: 40 microliters of 50% fresh human serum diluted with 0.1% Tween 20-150 mM NaCl—50 mM phosphate buffer (pH 7.3) added with or not added with 10 mM EDTA was added to a gel filtration chromatography column (TSKgel G3000 SWXL Tosoh Corporation) utilizing diol-modified silica gel as the carrier, and gel filtration was performed using 0.1% Tween 20—150 mM NaCl—50 mM phosphate buffer (pH 7.3) as solvent. Subsequently, the intelectin concentration in the elution fraction was measured using ELISA.

- binding of serum intelectin to the column ([2]; human serum added with 10 mM EDTA): did not bind to the column
- binding of serum intelectin to the column ([2]; human serum not added with EDTA): adsorbed to the column
B1: intelectin: a kind of lectin; amino acid sequence of human intelectin-1 is SEQ ID NO: 1; wild type forms a trimer (protein, listed as Homo sapiens)
chain: MNQLSFLLFLIATTRGWSTDEANTYFKEWTCSSSPSLPRSCKEIKDECPSAFDGLYFLRTENGVIYQTFCDMTSGGGGWTLVASVHENDMRGKCTVGDRWSSQQGSKADYPEGDGNWANYNTFGSAEAATSDDYKNPGYYDIQAKDLGIWHVPNKSPMQHWRNSSLLRYRTDTGFLQTLGHNLFGIYQKYPVKYGEGKCWTDNGPVIPVVYDFGDAQKTASYYSPYGQREFTAGFVQFRVFNNERAANALCAGMRVTGCNTEHHCIGGGGYFPEASPQQCGDFSGFDWSGYGTHVGYSSSREITEAAVLLFYR
modifications: human intelectin-1
notes: a kind of lectin; wild type forms a trimer
- binding to beads having a diol group (SDS-PAGE) [1]: selectively bind to diol beads and diol Sepharose beads

B2: C31, 48S mutant of human intelectin-1: cysteine residues at position 31 and 48 substituted with serine; produced as a monomer; SEQ ID NO: 9 (protein, listed as Homo sapiens)
chain: B1 chain with C31S, C48S
modifications: human intelectin-1 C31S, C48S variant
- binding to beads having a diol group (SDS-PAGE) [1]: specifically bind to diol beads and diol Sepharose beads

B3: mouse intelectin-1: produced as a monomer; 51 amino acid residues different from human intelectin-1; SEQ ID NO: 7 (protein, listed as Mus musculus)
chain: MTQLGFLLFIMVATRGCSAAEENLDTNRWGNSFFSSLPRSCKEIKQEHTKAQDGLYFLRTKNGVIYQTFCDMTTAGGGWTLVASVHENNMRGKCTVGDRWSSQQGNRADYPEGDGNWANYNTFGSAEAATSDDYKNPGYFDIQAENLGIWHVPNKSPLHNWRKSSLLRYRTFTGFLQHLGHNLFGLYKKYPVKYGEGKCWTDNGPALPVVYDFGDARKTASYYSPSGQREFTAGYVQFRVFNNERAASALCAGVRVTGCNTEHHCIGGGGFFPEGNPVQCGDFASFDWDGYGTHNGYSSSRKITEAAVLLFYR
modifications: mouse intelectin-1
- binding to beads having a diol group (SDS-PAGE) [1]: specifically bind to diol beads and diol Sepharose beads
